The values that follow come from US20240043529A1, “METHODS AND COMPOSITIONS RELATED TO BCL2 AND BIM HETERODIMER ANTIBODIES” (Eutropics Pharmaceuticals, Inc., priority 2020, published 2024).

For data set [1], the target named is T1, GST_Bc1xL (Bc1xL monomer) (human, UniProt Q07817 1-209).
T1 construct: also called BclxL monomer; not shown: GST (glutathione S-transferase) fused at the N-terminus
In words: ELISA, serially diluted hybridoma supernatant on glutathione plates. As for the experimental part:
(§1) This class of heterodimer specific Bc12:Bim reactive monoclonal antibodies are otherwise known as “HSB2B”. […] As controls, reactivity with Bc1xL:Bim, Bc12 and Bc1xL monomers, and bovine serum albumin (BSA) were also screened against. To adhere the Bc1xL and Bc12 to the plates, each was expressed as a recombinant fusion protein with GST at the N-terminus (i.e. GST_Bc12 and GST_Bc1xL). Once adhered to the plate, incubations were either performed with a Bim peptide (which fits into the BH3-binding pocket of Bc12 family members), or PBS (thus retaining the monomeric confirmation). Hybridomas supernatants were subsequently incubated with the coated antigens and detected with HRP conjugated anti-mouse IgG. The reaction was developed with TMB substrate and stopped with sulphuric acid. Gluathione plate wells were scanned using a wavelength filter with an optical density of 450 nanometres (OD₄₅₀).
In general terms: An ELISA detects its analyte on a solid surface through an enzyme-linked reagent.

The target of data set [2] is T2, bovine serum albumin (BSA) (bovine, UniProt P02769 25-607).
T2 construct: Control antigen
The data set is described as above. As for the experimental part:
as §1

Data set [3] has as its target T3, GST_Bc12 (Bc12 monomer) (human, UniProt P10415 1-218, limits assumed).
T3 construct: also called Bcl2 monomer; not shown: GST (glutathione S-transferase) fused at the N-terminus
The data set is described as above. As for the experimental part:
as §1

Data set [4] has as its system breast cancer tissue. In words: IHC on FFPE breast cancer tissue. To be noted: FIG. 6; biopsies of two breast cancer patients; three biopsy areas combined. The source says: The present anti-BC12/BINI antibodies are labelled “HSB2B” and a clone number (see Table A); “HSBXB” is an antibody against Bc1-x1/Bim and “HSMCB” is an antibody against MCL-1/BIM. Using an analogous staining method to that described in FIG. 5, serial sections of two different patients' breast cancer biopsies (“Breast Cancer Patient 1 & 2”) were stained at the same time, under the identical conditions for relative reactivity with HSB2B mAbs 2H3 and 10C10, HSMCB and HSBXB. Cytoplasmic staining levels of individual cells from three different biopsy areas for each patient biopsy were combined and plotted as dot/bar graphs. […] The acquisition of data following staining with different HSA classes is planned to be of clinical utility to determine the relative dependencies of different cancers on different Bc12 family members.

The target in data set [5] is Bc12:BAX heterodimers (Homo sapiens, UniProt P10415). In words: ELISA reactivity with different Bc12 and Bc1_XL heterodimers. The data set is classed as binding. To be noted: FIG. 8; signal relative to Bc12:BIM heterodimer. The source says:
(§2) All levels of reactivity are tabulated as percentage magnitudes of signal relative to those yielded with the Bc12:BIM heterodimer. […] 28A9 has low ABT199 cross-reactivity.

The subject of data set [6] is small cell lung cancer tissue. Description: IHC on FFPE small cell lung cancer tissue. To be noted: for cytoplasmic staining level (Mean Cytoplasmic OD) of tumor cells versus negative control: FIG. 4 (ii), four biopsy areas; for cytoplasmic staining level (Mean Cytoplasmic OD) of tumor cells versus negative control / cytoplasmic staining level of individual cells versus negative control: Mann Whitney ****p<0.001; for reactivity by IHC with small cell lung cancer tissue: FIG. 4, FFPE secondary (colon) tumor biopsy, anti-mouse IgG HRP, DAB; for cytoplasmic staining level of individual cells versus negative control: FIG. 5 (ii), three biopsy areas combined. The source says:
Serial sections of a FFPE secondary (colon) tumor biopsy were stained with the HSB2B clones or, as a negative control, no primary antibody (“neg control”). Antibody binding was detected with anti-mouse IgG HRP and developed using a DAB substrate to yield a brown stain. Nuclei were counterstained blue with Hematoxylin. Four corresponding biopsy areas (A-D) were imaged per biopsy for analysis. FIG. 4 (i) is a panel of images showing the magnitude of staining with each HSB2B mAb for one of the four biopsy areas acquired for each stained biopsy. […] Cellular architecture (middle row) was then defined using HALO image analysis software (left hand color key, TIL=tumor infiltrating lymphocytes), most importantly to define the location of the tumor cells. […] (ii) Dot plot/bar chart showing the cytoplasmic staining levels (Mean Cytoplasmic OD) for each of the tumor cells for the four different biopsy areas. The dots represent cytoplasmic staining intensities for individual cells. Medians and interquartile ranges are plotted. (Mann Whitney) statistical comparisons of staining intensity were performed between cells from HSB2B stained tissue and negative (neg) control tissue for each of the four areas of biopsy. ****p<0.001.
The present anti-BC12/BIM antibodies are labelled “HSB2B” and a clone number (see Table A); “HSBXB” is an antibody against Bc1-x1/Bim and “HSMCB” is an antibody against MCL-1/BIM. […] FIG. 5 (ii) is cytoplasmic staining levels of individual cells from three different biopsy areas were combined and plotted as dot/bar graphs. The dots represent cytoplasmic staining intensities for individual cells. Medians and interquartile ranges are plotted. (Mann Whitney) statistical comparisons of staining intensity were performed between cells from HSA stained tissue and negative (neg) control tissue. **** p<0.001. […] The acquisition of data following staining with different HSA classes is planned to be of clinical utility to determine the relative dependencies of different cancers on different Bc12 family members.

The target in data set [7] is Bc12:Bim heterodimeric complex (Homo sapiens, UniProt P10415). Description: ELISA of hybridoma supernatants on glutathione plates coated with GST_Bc12 complexed with Bim peptide. The data set is classed as binding. Conditions: for antigen reactivity of hybridoma supernatants (OD450): FIG. 1, serially diluted supernatants, controls Bc1xL:Bim, Bc12 and Bc1xL monomers, BSA; for hybridoma supernatant reactivity among a more exhaustive range of antigens: FIG. 2, antigens include Mcl1 monomer and Mc11:Bim heterodimeric forms. As for the experimental part: This class of heterodimer specific Bc12:Bim reactive monoclonal antibodies are otherwise known as “HSB2B”. […] As controls, reactivity with Bc1xL:Bim, Bc12 and Bc1xL monomers, and bovine serum albumin (BSA) were also screened against. To adhere the Bc1xL and Bc12 to the plates, each was expressed as a recombinant fusion protein with GST at the N-terminus (i.e. GST_Bc12 and GST_Bc1xL). Once adhered to the plate, incubations were either performed with a Bim peptide (which fits into the BH3-binding pocket of Bc12 family members), or PBS (thus retaining the monomeric confirmation). Hybridomas supernatants were subsequently incubated with the coated antigens and detected with HRP conjugated anti-mouse IgG. The reaction was developed with TMB substrate and stopped with sulphuric acid. Gluathione plate wells were scanned using a wavelength filter with an optical density of 450 nanometres (OD450).
As a GST fusion protein (GST_Mc11), HSB2B hybridoma supernatant reactivity was tested against the Mc11 monomeric form, or the heterodimeric forms (created by, either, incubation of Bim peptide (as for FIG. 1), or by covalently linking the Bim peptide to the GST_Mc11). As for FIG. 1, the HSB2B mAbs show specific reactivity with the epitopes induced following the complexing of Bc12 with Bim.

Data set [8] deals with Bc12:BIM heterodimer (Homo sapiens, UniProt P10415). In words: ELISA reactivity with different Bc12 and Bc1_XL heterodimers. The data set is classed as binding. To be noted: FIG. 8.
Excerpt: as §2

The target of data set [9] is ABT199 in a heterodimer with Bc12 (Homo sapiens, UniProt P10415). Described as above. The data set is classed as binding. To be noted: FIG. 8; signal relative to Bc12:BIM heterodimer.
Excerpt: as §2

Where a chain is given by its changes, count along the chain named.

Bc12:Bim heterodimeric complex, sequence (P10415 whole entry, the tested form may be a part): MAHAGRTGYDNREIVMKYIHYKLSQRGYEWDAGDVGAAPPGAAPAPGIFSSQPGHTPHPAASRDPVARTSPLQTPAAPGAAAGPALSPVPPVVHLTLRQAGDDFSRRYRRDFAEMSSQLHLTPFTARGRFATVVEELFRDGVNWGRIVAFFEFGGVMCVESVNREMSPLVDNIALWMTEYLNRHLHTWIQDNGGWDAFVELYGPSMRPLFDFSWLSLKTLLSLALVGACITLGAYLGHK
Bc12:Bim heterodimeric complex, sequence (O43521 142-161 partner limits assumed): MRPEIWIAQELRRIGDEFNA
T2 sequence (P02769 25-607 limits assumed): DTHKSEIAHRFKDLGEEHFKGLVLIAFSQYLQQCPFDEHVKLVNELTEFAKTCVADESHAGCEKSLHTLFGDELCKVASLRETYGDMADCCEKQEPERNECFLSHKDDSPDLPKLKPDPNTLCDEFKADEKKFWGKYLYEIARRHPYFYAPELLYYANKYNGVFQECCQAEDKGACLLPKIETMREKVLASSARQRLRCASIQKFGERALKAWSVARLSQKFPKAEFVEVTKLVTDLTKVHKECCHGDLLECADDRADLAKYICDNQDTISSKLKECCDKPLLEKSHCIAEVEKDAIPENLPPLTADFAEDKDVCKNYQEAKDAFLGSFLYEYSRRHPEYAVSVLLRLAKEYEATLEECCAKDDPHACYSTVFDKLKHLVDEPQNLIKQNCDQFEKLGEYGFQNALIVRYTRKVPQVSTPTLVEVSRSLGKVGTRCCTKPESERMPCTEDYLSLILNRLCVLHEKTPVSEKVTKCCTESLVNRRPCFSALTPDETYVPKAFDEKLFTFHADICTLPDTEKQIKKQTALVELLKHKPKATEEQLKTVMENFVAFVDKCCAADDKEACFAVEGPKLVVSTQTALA
T1 sequence (Q07817 1-209): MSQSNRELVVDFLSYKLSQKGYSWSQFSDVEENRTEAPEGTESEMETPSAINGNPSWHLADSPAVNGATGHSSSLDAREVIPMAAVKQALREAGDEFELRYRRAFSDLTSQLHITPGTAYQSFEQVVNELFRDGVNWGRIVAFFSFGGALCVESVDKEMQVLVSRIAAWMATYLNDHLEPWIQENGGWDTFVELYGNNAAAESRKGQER
Bc12:BAX heterodimers, sequence (P10415 whole entry): as the sequence (P10415 whole entry, the tested form may be a part) above
Bc12:BAX heterodimers, sequence (Q07812 whole entry partner): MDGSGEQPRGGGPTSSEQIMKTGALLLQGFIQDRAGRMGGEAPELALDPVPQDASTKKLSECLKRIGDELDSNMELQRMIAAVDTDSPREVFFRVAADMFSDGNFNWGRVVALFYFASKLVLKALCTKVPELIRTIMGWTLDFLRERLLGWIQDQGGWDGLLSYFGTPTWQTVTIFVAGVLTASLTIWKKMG
T3 sequence (P10415 1-218 limits assumed): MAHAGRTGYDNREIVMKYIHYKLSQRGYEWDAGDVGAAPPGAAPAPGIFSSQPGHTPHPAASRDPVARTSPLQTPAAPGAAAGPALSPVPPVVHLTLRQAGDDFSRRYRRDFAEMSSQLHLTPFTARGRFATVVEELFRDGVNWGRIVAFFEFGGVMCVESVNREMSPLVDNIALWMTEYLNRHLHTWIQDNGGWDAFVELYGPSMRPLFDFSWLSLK
ABT199 in a heterodimer with Bc12, sequence (P10415 whole entry, one chain of several): as the sequence (P10415 whole entry, the tested form may be a part) above
Bc12:BIM heterodimer, sequence (P10415 whole entry): as the sequence (P10415 whole entry, the tested form may be a part) above
Bc12:BIM heterodimer, sequence (O43521 whole entry partner): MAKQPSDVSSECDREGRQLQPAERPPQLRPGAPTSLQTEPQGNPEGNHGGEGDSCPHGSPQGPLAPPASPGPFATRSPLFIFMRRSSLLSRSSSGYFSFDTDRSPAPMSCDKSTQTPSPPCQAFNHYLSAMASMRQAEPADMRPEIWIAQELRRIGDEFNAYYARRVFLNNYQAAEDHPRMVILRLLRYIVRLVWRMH

B1: HSB2B clone 10C10F7 (antibody, V domains shown)
VH: QVQLQQPGAELVKPGASVKLSCKASGYTFTSYWMHWVKQRPGRGLEWIGRIDPNSGGTKSNEKFNNKATLTVDKSSSTAYMQLSSLTSEDSAVYYCARWWDYDYFDYWGQGTTLTVSS
VL: DIVMTQSPSSLTVTAGEKVTMSCKSSQSLLNSGNQKNYLTWYQQKPGQPPKLLIYWASTRESGVPDRFTGSGSGTDFTLTISNVQAEDLAVYYCQNDYNYPLTFGAGTKLELK
notes: Mouse IgG, tested as hybridoma supernatant; also called HSB2B mAb 10C10
For the molecule B1, the binding result in [1], in data set [2] and in data set [3] was “no binding” each time.

B2: 10C10: mouse IgG monoclonal antibody specific for the Bc12:Bim heterodimer; Hv SEQ ID NO: 1, Lv SEQ ID NO: 5 (antibody, V domains shown)
VH: B1 VH
VL: B1 VL
With B2, the “cytoplasmic staining level of individual cells versus negative control” value in data set [4] was “higher level of staining”. For the same molecule, in data set [5], the “cross-reactivity with Bc12:BAX heterodimer” value was “cross-reactivity between Bc12:BIM and Bc12:BAX heterodimers”. In addition, in data set [6], the “cytoplasmic staining level (Mean Cytoplasmic OD) of tumor cells versus negative control” value is “higher level of cytoplasmic stain”, the “reactivity by IHC with small cell lung cancer tissue” value is “can react with small cell lung cancer tissue” and the “cytoplasmic staining level of individual cells versus negative control” value is on record as “higher level of staining”. Besides, in [7], the “antigen reactivity of hybridoma supernatants (OD450)” value (from here on “antigen reactivity”) was “specific for the Bc12:Bim heterodimeric complex” and the “hybridoma supernatant reactivity among a more exhaustive range of antigens” value is given as “specific reactivity for the Bc12:Bim complex”.

B3: 2H3: mouse IgG monoclonal antibody specific for the Bc12:Bim heterodimer; Hv SEQ ID NO: 25, Lv SEQ ID NO: 29 (antibody, V domains shown)
VH: B1 VH with A16T, K23Q, T30A, S60Y, N65K, N66S, A68V, S75P, T78A
VL: B1 VL with N37R, N83S, A106S
With B3, in [4], the “cytoplasmic staining level of individual cells versus negative control” value is “higher level of staining”. The “cross-reactivity with Bc12:BAX heterodimer” value in data set [5] is “cross-reactivity between Bc12:BIM and Bc12:BAX heterodimers”. Further, in [6], the “cytoplasmic staining level (Mean Cytoplasmic OD) of tumor cells versus negative control” value was “higher level of cytoplasmic stain”, the “reactivity by IHC with small cell lung cancer tissue” value was “can react with small cell lung cancer tissue” and the “cytoplasmic staining level of individual cells versus negative control” value is “higher level of staining”. In addition, in data set [7], the “antigen reactivity” value is reported as “specific for the Bc12:Bim heterodimeric complex” and the “hybridoma supernatant reactivity among a more exhaustive range of antigens” value is reported as “specific reactivity for the Bc12:Bim complex”.

B4: HSB2B clone 2H3G7 (antibody, V domains shown)
VH: B1 VH with A16T, K23Q, T30A, S60Y, N65K, N66S, A68V, S75P, T78A
VL: B1 VL with N37R, N83S, A106S
notes: Mouse IgG, tested as hybridoma supernatant; also called HSB2B mAb 2H3
As to B4, the binding result in data set [1], in data set [2] and in data set [3] was “no binding” in each case.

B5: HSB2B clone 28A9D11 (antibody, V domains shown)
VH: DVQLQESGPGLVKPSQSLSLTCSVTGYSITSGYYWNWIRQFPGNKLEWMGYISYDGSNNYNPSLKNRISITRDTSKNQFFLKLNSVTTEDTATYYCARDGTTVVATLAYWGQGTLVTVSA
VL: QIVLTQSPAIMSASPGEKVTISCSASSSVSYMYWYQQKPGSSPKPWIYRTSNLASGVPARFSGSGSGTSYSLTISSMEAEDAATYYCQQYHSYPPTFGAGTKLELK
notes: Mouse IgG, tested as hybridoma supernatant
Take B5: the binding result in [1] and in data set [2] was “no binding” in each case.

B6: 28A9: mouse IgG monoclonal antibody specific for the Bc12:Bim heterodimer; Hv SEQ ID NO: 17, Lv SEQ ID NO: 21 (antibody, V domains shown)
VH: B5 VH
VL: B5 VL
As to B6, in data set [8], the “physiological heterodimer reactivity (selectivity)” value is given as “restricted to Bc12:BIM”. For the same molecule, the ABT199 cross-reactivity entry in data set [9] is listed as “low”. For the same molecule, the “antigen reactivity” value in [7] is “specific for the Bc12:Bim heterodimeric complex”.
